Test results reported in article PMC4433160.

T1: human beta defensin 2 (HBD2) (human, UniProt O15263 24-64)
T1 chain: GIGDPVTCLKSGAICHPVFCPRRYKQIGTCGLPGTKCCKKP

T2: human beta defensin 3 (HBD3) (human, UniProt P81534 23-67)
T2 chain: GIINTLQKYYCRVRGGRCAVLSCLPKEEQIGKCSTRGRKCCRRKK


Assays:
[1] = target: T1, human beta defensin 2 (HBD2); experiment: microscopy of complex
[2] = target: T2, human beta defensin 3 (HBD3); experiment: aggregate formation

Binder | binding result [1] | binding result [2]
GGTGCATCGATGCAGGGGGG (ssDNA, phosphorothioate at some nucleotides (underlining lost in text)) [FITC-CpG ODN D35] | binds | –
ATCGACTCTCGAGCGTTCTC (ssDNA, phosphorothioate (underlining lost in text)) [CpG ODN K3] | – | binds
